Several values for one entry are separate records, joined by “and”; a condition that tells them apart may be missing. Identical values can stand only once. Ends that are not written are not given here.
Assays:
[1] = Accumulation of 14C-methylated peptide in renal tissue (Example 3); assay type: in vivo, mice; conditions: 14C autoradiography, iv 30-100 nmol per mouse; 3 hours and 24 hours
Description: This example describes accumulation of peptides of this disclosure in renal tissue. ^14C-methylated knotted peptides were intravenously dosed into mice at 30-100 nmol per mouse. […] Cryosectioning was performed on a Bright-Hacker cryotome, taking 40 μm sagittal sections. Collected sections were allowed to freeze dry at −20° C. for 48-72 hours before being exposed to phosphor imager plates. Plates were exposed for 7 days then scanned on a RayTest CR-Bio35 scanner. Analysis was performed with AIDA WBA analysis software.

[2] = Fluorescent peptide delivery to kidneys, whole body fluorescence analysis; assay type: in vivo; conditions: 10 nmol iv, average and standard deviation from two mice
Description: This example illustrates fluorescent peptide delivery to kidneys. Peptides were labeled by reaction with NHS esters of Cy5.5 or AlexaFluor 647 (AF647). For comparison, the free […] NHS esters were hydrolyzed to produce unreactive Cy5.5-COOH and AF647-COOH. A dose of 10 nmol of dye-labeled peptide or dye alone was administered intravenously and fluorescence was measured at 3 hours, 24 hours, and 48 hours after administration. At each time point, mice were frozen and sectioned for whole body fluorescence analysis, which was performed by scanning the sections on the Odyssey 2.1 at 84 um resolution using the 700 channel.
Average and standard deviation are presented from two mice per group.

[3] = Peptide stability to a reducing agent (DTT), RP-HPLC; assay type: physicochemical; conditions: 10 mM DTT in PBS, room temperature, 30 minutes
Description: (§1) This example describes peptide stability in the presence of pepsin, trypsin, a reducing agent, or elevated temperature. Peptides were first suspended in 500 µl of ddH2O to a stock concentration of 2 mg/ml. […] These reactions were then quenched with 5 μg of soybean trypsin inhibitor (I) and, in some cases, 10 mM dithiothreitol (DTT). […] Temperature stability was tested by incubating peptides in non-reducing conditions at 70° C. for 1 hour. Stability was evaluated by RP-HPLC.

[4] = Blood urea nitrogen (BUN) assay in plasma, renal biocompatibility (Example 4); assay type: in vivo, mice; conditions: 100 nmol per mouse intravenously, after 24 hours, one value per mouse
Description: This example describes renal biocompatibility of peptides of this disclosure. The peptides of SEQ ID NO: 18, SEQ ID NO: 20, SEQ ID NO: 21, SEQ ID NO: 26, SEQ ID NO: 36, SEQ ID NO: 39, SEQ ID NO: 45 and SEQ ID NO: 53 were intravenously dosed into mice at 100 nmol per mouse. After 24 hours, mice were anesthesized with Ketamine-Xylazine and euthanized. Plasma and kidneys were removed as quickly as possible after euthanization. A blood urea nitrogen (BUN) assay was performed to assess renal toxicity with a commercially available kit.
The average BUN concentration in plasma for naïve mice was 25 mg/dL, with a standard error of 2 mg/dL. The average BUN concentration in plasma for peptide-dosed mice was 21, with a standard error of 1 mg/dL.

[5] = Plasma BUN, assessment of renal injury (Example 14); assay type: in vivo, mice
Description: (§2) This example illustrates assessment of renal injury by peptides of this disclosure. Mice were injected intravenously at a dose of 100 nmol, which is approximately 16 mg/kg. PBS was administered as a negative control. At 24 hours post-peptide administration, mice were euthanized and plasma blood urea nitrogen (BUN) and plasma creatinine were measured. The blood urea nitrogen (BUN) assay was performed to assess renal toxicity with a commercially available kit. Plasma creatinine concentrations were determined using the colorimetrically corrected Jaffe reaction method. Additionally, the kidneys from these mice were removed, sectioned, and stained using periodic acid Schiff (PAS). […] Histological analysis corroborated the mRNA/protein data.

[6] = Kidney histology, periodic acid Schiff (PAS) stain; assay type: in vivo, mice; conditions: 24 hours after intravenous administration of 100 nmol
Description: as §2

[7] = system: trypsin; experiment: Peptide stability in the presence of trypsin, RP-HPLC; assay type: in vitro ADME; conditions: 5 μg trypsin, pH 7.0, 30 minutes at 37.5° C.
Description: as §1

[8] = Plasma creatinine, Jaffe reaction method (Example 14); assay type: in vivo, mice; conditions: 100 nmol iv
Description: as §2

[9] = Whole body autoradiography of 14C labeled peptides, renal cortex and blood; assay type: in vivo, mice; conditions: for Signal ratio Kidney:Blood (3 hours) / Signal ratio Kidney:Blood (24 hours): renal cortex vs blood from the ventricle, 100 nmol iv; for Pixel density-Bkg/area (3 hours) / Pixel density-Bkg/area (24 hours): renal cortex, 100 nmol 14C labeled peptide iv
Excerpt: This example describes radiolabeling of peptides of this disclosure. Several knotted peptides were radiolabeled by reductive methylation with ^14C formaldehyde and sodium cyanoborohydride with standard techniques. The sequences were engineered to have the amino acids, “G” and “S” at the N terminus. See Methods in Enzymology V91:1983 p. 570 and JBC 254(11):1979 p. 4359. An excess of formaldehyde was used to ensure complete methylation (dimethylation of every free amine). The labeled peptides were isolated via solid-phase extraction on Strata-X columns (Phenomenex 8B-S100-AAK), rinsed with water with 5% methanol, and recovered in methanol with 2% formic acid. Solvent was subsequently removed in a blowdown evaporator with gentle heat and a stream of nitrogen gas. The final product was verified and characterized by high performance liquid chromatography (HPLC).
This example illustrates accumulation of peptides of the present disclosure in kidneys measured by whole body autoradiography. Peptides of the present disclosure were radiolabeled as described in EXAMPLE 2. 100 nmol of ^14C labeled peptides were administered intravenously in mice. Radiolabeled peptide signal was quantified in the renal cortex and blood from the ventricle in 2-3 sections per mouse in 2 mice total. Whole body autoradiography analysis was performed with AIDA.
SEQ ID NO: 55 and SEQ ID NO: 119 ([…]), a linearized version of SEQ ID NO: 55, were radiolabeled with ^14C as described in EXAMPLE 2 and administered intravenously in mice at a dose of 100 nmol. Radiolabeled peptide signal was quantified in the renal cortex and blood from the ventricle in 2-3 sections per mouse in 2 mice total. Whole body autoradiography analysis was performed with AIDA.

[10] = system: TNFa mRNA; experiment: Stress-induced mRNA by RT-PCR, TNFa; assay type: in vivo, mice; conditions: four hours post-peptide administration
Description: (§3) At four hours post-peptide administration, potential renal injury was assessed by measuring three stress-induced mRNAs (MCP-1, NGAL, and TNFa).

[11] = system: pepsin; experiment: Peptide stability in the presence of pepsin, RP-HPLC; assay type: in vitro ADME; conditions: 20 μg pepsin, pH 1.05, 30 minutes at 37.5° C.
Description: as §1

[12] = system: MCP-1 mRNA; experiment: Stress-induced mRNA by RT-PCR, MCP-1; assay type: in vivo, mice; conditions: four hours post-peptide administration
Description: as §3

[13] = system: HO-1 mRNA; experiment: mRNA by RT-PCR, HO-1; assay type: in vivo, mice; conditions: four hours post-peptide administration
[14] = system: NGAL mRNA; experiment: Stress-induced mRNA by RT-PCR, NGAL; assay type: in vivo, mice; conditions: four hours post-peptide administration
Description: as §3

[15] = Competitive renal uptake studies, fluorescence imaging of whole organs; assay type: in vivo, mice
Description: This example describes competitive uptake studies of peptides of this disclosure in kidneys. Peptides of this disclosure were compared to known kidney homers (“competitors”) to assess the efficiency and strength of kidney targeting. Three competitors were tested against a peptide of SEQ ID NO: 4, and kidney uptake was quantified by fluorescence imaging of whole organs on a Spectrum IVIS imager.
Kidneys from uninjected mice were used as a negative control. Fluorescence signal in each group was quantified to determine the average radiant efficiency in the kidneys from three mice per cohort. Data are shown as mean and error bars indicate standard deviation. A p-value of 0.0081 was calculated by a T-test, and the error bars indicate standard deviation. In this experiment, the unlabeled SEQ ID NO: 4 peptide competed with the SEQ ID NO: 4-AF647 as shown by decreased fluorescence and thus, decreased accumulation of the dye labeled peptide in the kidney. […] Fluorescence signal in each group was quantified to determine the average radiant efficiency in the kidneys from three mice per cohort. Data are shown as mean and error bars indicate standard deviation. Kidney uptake of a peptide of SEQ ID NO: 4-AF647 was not dampened by SEQ ID NO: 121 peptide even at the highest ratio of competitor. […] Fluorescence signal in each group was quantified to determine the average radiant efficiency in the kidneys from three mice per cohort. Data are shown as mean and error bars indicate standard deviation. A p-value of 0.015 was calculated by a Student's unpaired t-test.

[16] = Temperature stability at 70° C., RP-HPLC; assay type: physicochemical; conditions: non-reducing conditions, 70° C. for 1 hour
Description: as §1

[17] = Table 3, 100 nmol iv (approximately 16 mg/kg), 24 hours post-peptide administration
[18] = Table 3, 24 hours post-peptide administration
[19] = Table 4, 100 nmol iv, time not stated for this column (mRNAs at four hours)
[20] = Table 4, time not stated for this column (mRNAs at four hours)

## CNCCC(Oc1ccc(C(F)(F)F)cc1)c1ccccc1 (stereo not drawn) [fluoxetine, reference compound]
[1]
  renal signal pattern: non-interactive passage through the kidneys

## Cy5.5
[2]; 3 hours
  Fluorescence Signal in Kidneys 3 hours: 416 ± 170
[2]; 24 hours
  Fluorescence Signal in Kidneys 24 hours: 88 ± 8
[2]; 48 hours
  Fluorescence Signal in Kidneys 48 hours: 58 ± 11

## GSGDCLPHLKRCKENNDCCSKKCKRRGANPEKRCR [SEQ ID NO: 18]
[3]
  Reduction: Partially Resistant
[4]
  Peptide BUN: 21 mg/dL and 18 mg/dL
[5]; [17]
  Plasma BUN: 19.5 mg/dL
[6]
  renal physiology (PAS histology, FIG. 24): normal renal physiology
[7]
  Trypsin: Partially Resistant
[8]; [18]
  Plasma Creatinine: 0.43 mg/dL

## GSQDKCKKVYENYPVSKCQLANQCNYDCKLDKHARSGECFYDEKRNLQCICDYCEY [SEQ ID NO: 39]
[3]
  Reduction: Not Resistant
[4]
  Peptide BUN: 23 mg/dL and 18 mg/dL
[5]; [17]
  Plasma BUN: 20.5 mg/dL
[6]
  renal physiology (PAS histology, FIG. 24): normal renal physiology
[7]
  Trypsin: Partially Resistant
[8]; [18]
  Plasma Creatinine: 0.32 mg/dL

## GSQFTDVKCTGSKQCWPVCKQMFGKPNGKCMNGKCRCYS [SEQ ID NO: 26]
[3]
  Reduction: Not Resistant
[4]
  Peptide BUN: 19 mg/dL
[5]; [17]
  Plasma BUN: 19 mg/dL
[6]
  renal physiology (PAS histology, FIG. 24): normal renal physiology
[7]
  Trypsin: Partially Resistant
[8]; [18]
  Plasma Creatinine: 0.33 mg/dL

## GSQFTNVSCTTSRECWSVCQRLHNTSRGRCMNRRCRCYS [SEQ ID NO: 5]
[3]
  Reduction: Resistant
[9]
  Signal ratio Kidney:Blood (3 hours): 27.2
  Signal ratio Kidney:Blood (24 hours): 6.4
  Pixel density-Bkg/area (3 hours): 1.40E+07
  Pixel density-Bkg/area (24 hours): 1.81E+06
[10]
  mTNFa/GAPDH: 2.55
[11]
  Pepsin: Resistant
[5]; [19]
  Plasma BUN: 23 mg/dL
[7]
  Trypsin: Resistant
[12]
  mMCP-1/GAPDH: 0.79
[8]; [20]
  Plasma Creatinine: 0.23 mg/dL
[13]
  mHO-1/GAPDH: 0.62
[14]
  mNGAL/GAPDH: 1.76

## GSQKILSNRCNNSSECIPHCIRIFGTRAAKCINRKCYCYP [SEQ ID NO: 20]
[3]
  Reduction: Resistant
[4]
  Peptide BUN: 29 mg/dL and 21 mg/dL
[5]; [17]
  Plasma BUN: 25 mg/dL
[6]
  renal physiology (PAS histology, FIG. 24): normal renal physiology
[7]
  Trypsin: Partially Resistant
[8]; [18]
  Plasma Creatinine: 0.5 mg/dL

## GSSCARPRENCNRMNILCCRGECVCPTFGDCFCYGD [SEQ ID NO: 54]
[9]
  Signal ratio Kidney:Blood (3 hours): 0.8
  Signal ratio Kidney:Blood (24 hours): 7.2
  Pixel density-Bkg/area (3 hours): 1.48E+06
  Pixel density-Bkg/area (24 hours): 1.95E+06
[10]
  mTNFa/GAPDH: 2.42
[5]; [19]
  Plasma BUN: 26 mg/dL
[12]
  mMCP-1/GAPDH: 0.74
[8]; [20]
  Plasma Creatinine: 0.26 mg/dL
[13]
  mHO-1/GAPDH: 0.65
[14]
  mNGAL/GAPDH: 1.58

## GSSCEPGRTFRDRCNTCRCGADGRSAACTLRACPNQ [SEQ ID NO: 4]
[1]
  renal signal pattern: interacting with the kidney, likely cells of the proximal tubule
[15]; 2 nmol SEQ ID NO: 4-AF647 co-injected with 0, 10 or 50 nmol unlabeled peptide, 4 hours
  renal uptake in competition with unlabeled SEQ ID NO: 4 (FIG. 10): specific and saturable

## GSSCEPGTTFRDRCNTCRCGSDGRSAACTLRACPQ [SEQ ID NO: 46]
[9]
  Signal ratio Kidney:Blood (3 hours): 4.7
  Signal ratio Kidney:Blood (24 hours): 6
  Pixel density-Bkg/area (3 hours): 8.83E+05
  Pixel density-Bkg/area (24 hours): 1.49E+06
[10]
  mTNFa/GAPDH: 2.87
[5]; [19]
  Plasma BUN: 22 mg/dL
[12]
  mMCP-1/GAPDH: 0.64
[8]; [20]
  Plasma Creatinine: 0.29 mg/dL
[13]
  mHO-1/GAPDH: 0.58
[14]
  mNGAL/GAPDH: 1.39

## GSVFINVKCRGSPECLPKCKEAIGKSAGKCMNGKCKCYP [SEQ ID NO: 36]
[3]
  Reduction: Not Resistant
[4]
  Peptide BUN: 22 mg/dL and 21 mg/dL
[11]
  Pepsin: Resistant
[5]; [17]
  Plasma BUN: 21.5 mg/dL
[6]
  renal physiology (PAS histology, FIG. 24): normal renal physiology
[7]
  Trypsin: Not Resistant
[16]
  Temperature (70° C.): Resistant
[8]; [18]
  Plasma Creatinine: 0.4 mg/dL

## KKEEEKKEEEKKEEEKK [SEQ ID NO: 121, reference compound]
[15]; 2 nmol SEQ ID NO: 4-AF647 co-injected with 100 or 2000 nmol competitor, 1 hour
  competition with kidney uptake of SEQ ID NO: 4-AF647 (FIG. 11): failed to compete

Reference: US20200330603A1, “PEPTIDES FOR RENAL THERAPY” (FRED HUTCHINSON CANCER RESEARCH CENTER, priority 2015, published 2020)
